Reference: patent EP4703384A1 (Chia Tai Tianqing Pharmaceutical Group Co., Ltd., dated 2026)
Changes are numbered by the printed parent chain. Blank lines part the entries; values can stand above or below the binder they belong to.

Columns and labels:
human GPRC5D protein = target: T1, human GPRC5D protein (human, UniProt Q9NZD1 1-345); experiment: FACS on NCI-H929 cells
T1 construct: also called hGPRC5D; CHO-K1-hGPRC5D^hi

T cell surface CD3 [1] = target: T2, T cell surface CD3 (human, UniProt P07766 23-207; P04234 22-171; P09693 23-182); experiment: cell-based or functional assay
T2 sequence (P07766 23-207 limits assumed, chain 1 of 3): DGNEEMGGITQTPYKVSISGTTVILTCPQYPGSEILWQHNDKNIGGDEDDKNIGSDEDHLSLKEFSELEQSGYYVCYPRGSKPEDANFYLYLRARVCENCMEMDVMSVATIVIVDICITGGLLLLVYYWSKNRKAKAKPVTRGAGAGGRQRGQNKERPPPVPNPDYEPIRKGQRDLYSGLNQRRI
T2 sequence (P04234 22-171 limits assumed, chain 2 of 3): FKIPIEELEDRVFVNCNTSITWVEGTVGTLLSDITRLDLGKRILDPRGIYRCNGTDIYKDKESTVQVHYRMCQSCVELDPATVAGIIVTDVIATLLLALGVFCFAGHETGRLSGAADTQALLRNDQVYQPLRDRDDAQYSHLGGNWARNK
T2 sequence (P09693 23-182 limits assumed, chain 3 of 3): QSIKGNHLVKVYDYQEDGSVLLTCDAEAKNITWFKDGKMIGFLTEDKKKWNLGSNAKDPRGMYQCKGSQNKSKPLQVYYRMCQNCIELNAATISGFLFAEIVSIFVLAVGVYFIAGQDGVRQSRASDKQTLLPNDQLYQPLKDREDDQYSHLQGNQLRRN

T cell surface CD3 [2] = target: T2, T cell surface CD3; experiment: FACS on human CD3+ T cells

T1 sequence (Q9NZD1 whole entry): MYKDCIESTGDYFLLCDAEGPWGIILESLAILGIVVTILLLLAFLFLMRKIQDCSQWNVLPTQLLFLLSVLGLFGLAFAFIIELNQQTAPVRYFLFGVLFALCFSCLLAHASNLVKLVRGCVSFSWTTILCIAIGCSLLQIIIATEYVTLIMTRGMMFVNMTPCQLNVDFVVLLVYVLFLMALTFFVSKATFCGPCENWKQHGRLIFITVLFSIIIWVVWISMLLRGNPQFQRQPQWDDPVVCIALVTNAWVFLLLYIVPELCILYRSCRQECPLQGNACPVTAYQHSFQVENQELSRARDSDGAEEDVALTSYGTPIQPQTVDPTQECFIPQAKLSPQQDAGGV

- binding result (human GPRC5D protein): binds
B1: hu128-v1 (antibody, human IgG1, kappa, V domains shown)
VH: EVQLVESGGGLVQPGGSRRVSCAASGFTFSSFGMHWVRQAPGKGLEWVAYISRGSSTIYYADTVKGRFTISRDNAKNSLYLQMNSLRAEDTAVYYCARSGYGSSSYYFDYWGQGTTVTVSS
VL: EIVLTQSPATLSASPGERATMSCRASSSIRSSYLHWYQQKPGQSPRLWIYSTSNLASGVPARFSGSGSGTDYTLTISSLEPEDAAVYYCQQFSGYPLTFGGGTKVEIKR

- CD25/CD4 EC50(nM), activation of T cells in the presence of MM.1S (T cell surface CD3 [1]): 0.0637 nM
- CD25/CD8 EC50(nM), activation of T cells in the presence of MM.1S (T cell surface CD3 [1]): 0.0592 nM
- CD69/CD4 EC50(nM), activation of T cells in the presence of MM.1S (T cell surface CD3 [1]): 0.046 nM
- CD69/CD8 EC50(nM), activation of T cells in the presence of MM.1S (T cell surface CD3 [1]): 0.0329 nM
- EC50 (T cell surface CD3 [2]): 5.35 nM
- Top(MFI) (T cell surface CD3 [2]): 155000 MFI
B2: Talquetamab (bispecific antibody, human IgG4 S228P, kappa, lambda, F234A L235A)
heavy 1: not shown
light 1: DIQMTQSPSSLSASVGDRVTITCKASQNVATHVGWYQQKPGKAPKRLIYSASYRYSGVPSRFSGSGSGTEFTLTISNLQPEDFATYYCQQYNRYPYTFGQGTKLEIKRTVAAPSVFIFPPSDEQLKSGTASVVCLLNNFYPREAKVQWKVDNALQSGNSQESVTEQDSKDSTYSLSSTLTLSKADYEKHKVYACEVTHQGLSSPVTKSFNRGEC
heavy 2: EVQLVESGGGLVQPGGSLRLSCAASGFTFNTYAMNWVRQAPGKGLEWVARIRSKYNNYATYYAASVKGRFTISRDDSKNSLYLQMNSLKTEDTAVYYCARHGNFGNSYVSWFAYWGQGTLVTVSSASTKGPSVFPLAPCSRSTSESTAALGCLVKDYFPEPVTVSWNSGALTSGVHTFPAVLQSSGLYSLSSVVTVPSSSLGTKTYTCNVDHKPSNTKVDKRVESKYGPPCPPCPAPEAAGGPSVFLFPPKPKDTLMISRTPEVTCVVVDVSQEDPEVQFNWYVDGVEVHNAKTKPREEQFNSTYRVVSVLTVLHQDWLNGKEYKCKVSNKGLPSSIEKTISKAKGQPREPQVYTLPPSQEEMTKNQVSLTCLVKGFYPSDIAVEWESNGQPENNYKTTPPVLDSDGSFLLYSKLTVDKSRWQEGNVFSCSVMHEALHNHYTQKSLSLSLGK
light 2: QTVVTQEPSLTVSPGGTVTLTCRSSTGAVTTSNYANWVQQKPGQAPRGLIGGTNKRAPGTPARFSGSLLGGKAALTLSGVQPEDEAEYYCALWYSNLWVFGGGTKLTVLGQPKAAPSVTLFPPSSEELQANKATLVCLISDFYPGAVTVAWKADSSPVKAGVETTTPSKQSNNKYAASSYLSLTPEQWKSHRSYSCQVTHEGSTVEKTVAPTECS
notes: Four polypeptide chains; also called benchmark; BM

- binding result (human GPRC5D protein): binds
B3: hu131-v2 (antibody, human IgG1, kappa, V domains shown)
VH: EVQLVQSGAEVVKPGASVKMSCKASGYTFTNYVMHWVKQAPGQGLEWIGYFNPYNDGTNYNEKFKGRATLTSDTSANTAYMELSSLRSEDTAVYYCARGGVRRYFDVWGQGTTVTVSS
VL: DIQMTQSPSSLSASVGDRVTITCRASQDIGSNLNWLQLGPGGAIKRLIYATFSLDSGVPSRFSGSRSGSDYTLTISSLQPEDFVDYYCQQYANFPPTFGGGTKVEIKR
notes: Humanized antibody of Chi-131

- binding result (human GPRC5D protein): binds
B4: hu131-v1 (antibody, human IgG1, kappa, V domains shown)
VH: B3 VH with I48M, A68V
VL: B3 VL
notes: Humanized antibody of Chi-131

- binding result (human GPRC5D protein): binds
B5: hu131-v4 (antibody, human IgG1, kappa, V domains shown)
VH: B3 VH with D56E
VL: B3 VL
notes: Humanized antibody of Chi-131

- binding result (human GPRC5D protein): binds
B6: hu131-v3 (antibody, human IgG1, kappa, V domains shown)
VH: B3 VH with G57A
VL: B3 VL
notes: Humanized antibody of Chi-131
